Reference: publication PMC10397247

Assays:
Test in all cases: two-hybrid library CCmax;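 note: natural log of median RNA to DNA barcode read ratio; higher means stronger binding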
[1] = molecular target: T1, 4H2466-AA; settings: mean of both orientations
T1 chain: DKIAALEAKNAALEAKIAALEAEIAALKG

[2] = molecular target: T2, 4H1765-AA; settings: mean of both orientations
T2 chain: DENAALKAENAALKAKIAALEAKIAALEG

[3] = molecular target: T3, 4H3015-AA; settings: mean of both orientations
T3 chain: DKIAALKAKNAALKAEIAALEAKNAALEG

[4] = molecular target: T4, 4H347-AA
T4 chain: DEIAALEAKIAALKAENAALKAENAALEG

[5] = molecular target: T5, 4H452-AA; settings: mean of both orientations
T5 chain: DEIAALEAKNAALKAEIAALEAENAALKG

[6] = molecular target: T6, 4H2253-AA; settings: mean of both orientations
T6 chain: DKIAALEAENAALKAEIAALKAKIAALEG

[7] = molecular target: T7, 4H406-AA; settings: mean of both orientations
T7 chain: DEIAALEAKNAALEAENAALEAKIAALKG

[8] = molecular target: T8, 4H2931-AA; settings: mean of both orientations
T8 chain: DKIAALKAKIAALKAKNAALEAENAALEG

[9] = molecular target: T9, 4H2592-AA; settings: mean of both orientations
T9 chain: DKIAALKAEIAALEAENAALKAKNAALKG

[10] = molecular target: T10, 4H1821-AA; settings: mean of both orientations
T10 chain: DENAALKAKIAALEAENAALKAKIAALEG

[11] = molecular target: T11, 4H2343-AA; settings: mean of both orientations
T11 chain: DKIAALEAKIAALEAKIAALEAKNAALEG

[12] = molecular target: T12, 4H175-AA
T12 chain: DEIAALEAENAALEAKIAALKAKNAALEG

[13] = molecular target: T13, 4H_BCR; settings: mean of both orientations
T13 chain: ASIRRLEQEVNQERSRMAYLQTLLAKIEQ

[14] = molecular target: T14, 4H3438-AA; settings: mean of both orientations
T14 chain: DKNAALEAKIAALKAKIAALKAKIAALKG

[15] = molecular target: T15, 4H56-AA; settings: mean of both orientations
T15 chain: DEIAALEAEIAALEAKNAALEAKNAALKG

[16] = molecular target: T16, 4H1828-AA; settings: mean of both orientations
T16 chain: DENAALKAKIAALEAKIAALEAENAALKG

[17] = molecular target: T17, 4H3001-AA; settings: mean of both orientations
T17 chain: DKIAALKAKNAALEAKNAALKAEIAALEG

[18] = molecular target: 4H_GCN4
4H_GCN4, sequence (chain, as listed by the source): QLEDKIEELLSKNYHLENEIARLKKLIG

[19] = molecular target: T18, 4H2124-AA; settings: mean of both orientations
T18 chain: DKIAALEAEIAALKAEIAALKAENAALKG

[20] = molecular target: T19, 4H_APH
T19 chain: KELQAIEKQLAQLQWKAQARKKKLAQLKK

[21] = molecular target: T20, 4H2330-AA; settings: mean of both orientations
T20 chain: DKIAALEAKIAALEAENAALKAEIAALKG

[22] = molecular target: GCN2_T
[23] = molecular target: T21, 4H2732-AA; settings: mean of both orientations
T21 chain: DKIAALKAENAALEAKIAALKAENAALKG

[24] = molecular target: T22, 4H2165-AA; settings: mean of both orientations
T22 chain: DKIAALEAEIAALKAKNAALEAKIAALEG

[25] = molecular target: T23, 4H3073-AA
T23 chain: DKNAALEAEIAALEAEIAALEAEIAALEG

[26] = molecular target: T24, 4H249-AA; settings: mean of both orientations
T24 chain: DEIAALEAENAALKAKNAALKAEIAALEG

[27] = molecular target: T25, 4H1930-AA; settings: mean of both orientations
T25 chain: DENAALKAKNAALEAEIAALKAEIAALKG

[28] = molecular target: T26, 4H2774-AA; settings: mean of both orientations
T26 chain: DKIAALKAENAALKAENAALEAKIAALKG

With DEIAALEAENAALEAKIAALKAKNAALEG [4H175-AA] as the binder, how does the interaction score [1] read?
Its interaction score is -1.58.

And the interaction score [2]?
Its interaction score is -1.18.

And the interaction score [3]?
The interaction score was 2.21.

And the interaction score [4]?
Its interaction score is -1.44.

And the interaction score [5]?
The interaction score was 0.385.

And the interaction score [6]?
The interaction score was -0.981.

And the interaction score [7]?
Its interaction score is -1.39.

What about the interaction score [8] of the same binder?
The interaction score was -1.11.

And the interaction score [9]?
The interaction score was -1.32.

What about the interaction score [10] of the same binder?
Its interaction score is -1.36.

What about the interaction score [11] of the same binder?
The interaction score was -1.82.

And the interaction score [12]?
Its interaction score is -0.721.

What about the interaction score [13] of the same binder?
The interaction score was -2.06.

And the interaction score [14]?
The interaction score was -0.317.

And the interaction score [15]?
Its interaction score is -1.56.

And the interaction score [16]?
The interaction score was -1.69.

What about the interaction score [17] of the same binder?
Its interaction score is -0.307.

What about the interaction score [18] of the same binder?
The interaction score was -1.

And the interaction score [19]?
The interaction score was -1.39.

What about the interaction score [20] of the same binder?
Its interaction score is -0.714.

And the interaction score [21]?
The interaction score was -1.68.

And the interaction score [22]?
The interaction score was -0.991.

What about the interaction score [23] of the same binder?
Its interaction score is -0.776.

What about the interaction score [24] of the same binder?
The interaction score was -1.43.

And the interaction score [25]?
The interaction score was -2.69.

What about the interaction score [26] of the same binder?
Its interaction score is 0.000294.

What about the interaction score [27] of the same binder?
Its interaction score is -1.75.

What about the interaction score [28] of the same binder?
Its interaction score is -0.332.
